Reference: patent publication US20030036631

Columns and labels:
[1] = molecular target: GST-SiglecBMSL3cyto (wildtype)

B1: ZAP70 kinase (protein)
chain: MPDPAAHLPFFYGSISRAEAEEHLKLAGMADGLFLLRQCLRSLGGYVLSLVHDVRFHHFPIERQLNGTYAIAGGKAHCGPAELCEFYSRDPDGLPCNLRKPCNRPSGLEPQPGVFDCLRDAMVRDYVRQTWKLEGEALEQAIISQAPQVEKLIATTAHERMPWYHSSLTREEAERKLYSGAQTDGKFLLRPRKEQGTYALSLIYGKTVYHYLISQDKAGKYCIPEGTKFDTLWQLVEYLKLKADGLIYCLKEACPNSSASNASGAAAPTLPAHPSTLTHPQRRIDTLNSDGYTPEPARITSPDKPRPMPMDTSVYESPYSDPEELKDKKLFLKRDNLLIADIELGCGNFGSVRQGVYRMRKKQIDVAIKVLKQGTEKADTEEMMREAQIMHQLDNPYIVRLIGVCQAEALMLVMEMAGGGPLHKFLVGKREEIPVSNVAELLHQVSMGMKYLEEKNFVHRDLAARNVLLVNRHYAKISDFGLSKALGADDSYYTARSAGKWPLKWYAPECINFRKFSSRSDVWSYGVTMWEALSYGQKPYKKMKGPEVMAFIEQGKRMECPPECPPELYALMSDCWIYKWEDRPDFLTVEQRMRACYYSLASKVEGPPGSTQKAEAACA
- Decrease in Wild type Phosphorylation (GST-L3cyto-Y667F): 100%
- phosphorylation of wildtype GST-SIGLECBMS-L3cyto (kinase ELISA, anti p-Tyr HRP) [1]: ZAP70 (20%)
- Decrease in Wild type Phosphorylation (GST-L3cyto-Y641alone): 20%

B2: JAK3 kinase (protein)
chain: MAPPSEETPLIPQRSCSLLSTEAGALHVLLPARGPGPPQRLSFSFGDHLAEDLCVQAAKASGILPVYHSLFALATEDLSCWFPPSHIFSVEDASTQVLLYRIRFYFPNWFGLEKCHRFGLRKDLASAILDLPVLEHLFAQHRSDLVSGRLPVGLSLKEQGECLSLAVLDLARMAREQAQRPGELLKTVSYKACLPPSLRDLIQGLSFVTRRRIRRTVRRALRRVAACQADRHSLMAKYIMDLERLDPAGAAETFHVGLPGALGGHDGLGLLRVAGDGGIAWTQGEQEVLQPFCDFPEIVDISIKQAPRVGPAGEHRLVTVTRTDNQILEAEFPGLPEALSFVALVDGYFRLTTDSQHFFCKEVAPPRLLEEVAEQCHGPITLDFAINKLKTGGSRPGSYVLRRSPQDFDSFLLTVCVQNPLGPDYKGCLIRRSPTGTFLLVGLSRPHSSLRELLATCWDGGLHVDGVAVTLTSCCIPRPKEKSNLIVVQRGHSPPTSSLVQPQSQYQLSQMTFHKIPADSLEWHENLGHGSFTKIYRGCRHEVVDGEARKTEVLLKVMDAKHKNCMESFLEAASLMSQVSYRHLVLLHGVCMAGDSTMVQEFVHLGAIDMYLRKRGHLVPASWKLQVVKQLAYALNYLEDKGLPHGNVSARKVLLAREGADGSPPFIKLSDPGVSPAVLSLEMLTDRIPWVAPECLREAQTLSLEADKWGFGATVWEVFSGVTMPISALDPAKKLQFYEDRQQLPAPKWTELALLIQQCMAYEPVQRPSFRAVIRDLNSLISSDYELLSDPTPGALAPRDGLWNGAQLYACQDPTIFEERHLKYISQLGKGNFGSVELCRYDPLGDNTGALVAVKQLQHSGPDQQRDFQREIQILKALHSDFIVKYRGVSYGPGRQSLRLVMEYLPSGCLRDFLQRHRARLDASRLLLYSSQICKGMEYLGSRRCVHRDLAARNILVESEAHVKIADFGLAKLLPLDKDYYVVREPGQSPIFWYAPESLSDNIFSRQSDVWSFGVVLYELFTYCDKSCSPSAEFLRMMGCERDVPALCRLLELLEEGQRLPAPPACPAEVHELMKLCWAPSPQDRPSFSALGPQLDMLWSGSRGCETHAFTAHPEGKHHSLSFS
- Decrease in Wild type Phosphorylation (GST-L3cyto-Y667F): 50%
- phosphorylation of wildtype GST-SIGLECBMS-L3cyto (kinase ELISA, anti p-Tyr HRP) [1]: JAK3 (92%)
- Decrease in Wild type Phosphorylation (L3cyto-Y691F): 25%

B3: emt kinase (protein)
chain: MNNFILLEEQLIKKSQQKRRTSPSNFKVRFFVLTKASLAYFEDRHGKKRTLKGSIELSRIKCVEIVKSDISIPCHYKYPFQVVHDNYLLYVFAPDRESRQRWVLALKEETRNNNSLVPKYHPNFWMDGKWRCCSQLEKLATGCAQYDPTKNASKKPLPPTPEDNRRPLWEPEETVVIALYDYQTNDPQELALRRNEEYCLLDSSEIHWWRVQDRNGHEGYVPSSYLVEKSPNNLETYEWYNKSISRDKAEKLLLDTGKEGAFMVRDSRTAGTYTVSVFTKAVVSENNPCIKHYHIKETNDNPKRYYVAEKYVFDSIPLLINYHQHNGGGLVTRLRYPVCFGRQKAPVTAGLRYGKWVIDPSELTFVQEIGSGQFGLVHLGYWLNKDKVAIKTIREGAMSEEDFIEEAEVMMKLSHPKLVQLYGVCLEQAPICLVFEFMEHGCLSDYLRTQRGLFAAETLLGMCLDVCEGMAYLEEACVIHRDLAARNCLVGENQVIKVSDFGMTRFVLDDQYTSSTGTKFPVKWASPEVFSFSRYSSKSDVWSFGVLMWEVFSEGKIPYENRSNSEVVEDISTGFRLYKPRLASTHVYQIMNHCWKERPEDRPAFSRLLRQLAEIAESGL
- Decrease in Wild type Phosphorylation (GST-L3cyto-Y667F): 70%
- phosphorylation of wildtype GST-SIGLECBMS-L3cyto (kinase ELISA, anti p-Tyr HRP) [1]: emt(65%)
